{"source": "IntAct's records for PubMed 23055042", "parents": {"B1": {"name": "Protein Bop (Homo sapiens), Q7L3V2 (parent)", "chain": "MPRGRCRQQGPRIPIWAAANYANAHPWQQMDKASPGVAYTPLVDPWIERPCCGDTVCVRTTMEQKSTASGTCGGKPAERGPLAGHMPSSRPHRVDFCWVPGSDPGTFDGSPWLLDRFLAQLGDYMSFHFEHYQDNISRVCEILRRLTGRAQAWAAPYLDGDLPLPDDYELFCQDLKEVVQDPNSFAEYHAVVTCPLPLASSQLPVAPQLPVVRQYLARFLEGLALDMGTAPRSLPAAMATPAVSGSNSVSRSALFEQQLTKESTPGPKEPPVLPSSTCSSKPGPVEPASSQPEEAAPTPVPRLSESANPPAQRPDPAHPGGPKPQKTEEEVLETEGDQEVSLGTPQEVVEAPETPGEPPLSPGF"}}, "data": [{"variants_of": "B1", "details": "with vdac1_human VDAC1, P21796", "values": [{"variant": "MPRGRCRQQGPRIPIWAAANYANAHPWQQMDKASPGVAYTPLVDPWIERPCCGDTVCVRTTMEQKSTASGTCGGKPAERGPLAGHMPSSRPHRVDFCWVPGSDPGTFDGSPWLLDRFAAQLGDYMSFHFEHYQDNISRVCEILRRLTGRAQAWAAPYLDGDLPLPDDYELFCQDLKEVVQDPNSFAEYHAVVTCPLPLASSQLPVAPQLPVVRQYLARFLEGLALDMGTAPRSLPAAMATPAVSGSNSVSRSALFEQQLTKESTPGPKEPPVLPSSTCSSKPGPVEPASSQPEEAAPTPVPRLSESANPPAQRPDPAHPGGPKPQKTEEEVLETEGDQEVSLGTPQEVVEAPETPGEPPLSPGF", "note": "[L118A]", "effect of a mutation on the interaction": "decreasing interaction strength"}]}]}
